The values below come from doi:10.1101/356592 (bioRxiv, 2018).

First the molecules themselves.
B2: His6-tagged Dmc1 (natural protein, Saccharomyces cerevisiae, UniProt P25453 1-334, looked up)
chain: MSVTGTEIDSDTAKNILSVDELQNYGINASDLQKLKSGGIYTVNTVLSTTRRHLCKIKGLSEVKVEKIKEAAGKIIQVGFIPATVQLDIRQRVYSLSTGSKQLDSILGGGIMTMSITEVFGEFRCGKTQMSHTLCVTTQLPREMGGGEGKVAYIDTEGTFRPERIKQIAEGYELDPESCLANVSYARALNSEHQMELVEQLGEELSSGDYRLIVVDSIMANFRVDYCGRGELSERQQKLNQHLFKLNRLAEEFNVAVFLTNQVQSDPGASALFASADGRKPIGGHVLAHASATRILLRKGRGDERVAKLQDSPDMPEKECVYVIGEKGITDSSD

The target of the test “His6-tagged Dmc1” is B2. Briefly: co-IP.
The target of test [1] is Replication protein A (RPA) (Saccharomyces cerevisiae, UniProt P22336 1-621; P26754 1-273; P26755 1-122). Nature of the test: pull-down.
Replication protein A (RPA), sequence (P22336 whole entry, chain 1 of 3): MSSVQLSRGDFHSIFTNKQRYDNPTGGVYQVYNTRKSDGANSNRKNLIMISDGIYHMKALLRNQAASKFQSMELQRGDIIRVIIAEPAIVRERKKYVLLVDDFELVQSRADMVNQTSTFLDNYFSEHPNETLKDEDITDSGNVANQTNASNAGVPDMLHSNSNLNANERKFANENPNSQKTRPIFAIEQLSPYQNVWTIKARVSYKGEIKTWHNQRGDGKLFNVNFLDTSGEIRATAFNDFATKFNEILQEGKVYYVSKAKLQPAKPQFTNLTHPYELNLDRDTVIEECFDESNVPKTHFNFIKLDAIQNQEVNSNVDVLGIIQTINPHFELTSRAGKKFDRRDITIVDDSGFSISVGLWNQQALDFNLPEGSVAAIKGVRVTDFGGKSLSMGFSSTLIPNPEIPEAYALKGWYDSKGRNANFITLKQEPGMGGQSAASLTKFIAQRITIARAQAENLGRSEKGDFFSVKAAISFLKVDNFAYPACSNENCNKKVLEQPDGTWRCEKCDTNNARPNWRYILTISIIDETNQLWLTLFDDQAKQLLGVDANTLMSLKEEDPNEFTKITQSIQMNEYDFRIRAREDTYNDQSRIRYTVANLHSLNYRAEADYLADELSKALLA
Replication protein A (RPA), sequence (P26754 whole entry, chain 2 of 3): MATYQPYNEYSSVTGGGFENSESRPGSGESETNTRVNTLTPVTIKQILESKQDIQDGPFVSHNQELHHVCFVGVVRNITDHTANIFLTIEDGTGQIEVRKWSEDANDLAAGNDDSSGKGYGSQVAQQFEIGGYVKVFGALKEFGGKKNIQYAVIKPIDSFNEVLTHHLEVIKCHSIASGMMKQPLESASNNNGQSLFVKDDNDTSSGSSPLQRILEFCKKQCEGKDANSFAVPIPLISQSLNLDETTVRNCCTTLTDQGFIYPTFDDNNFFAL
Replication protein A (RPA), sequence (P26755 whole entry, chain 3 of 3): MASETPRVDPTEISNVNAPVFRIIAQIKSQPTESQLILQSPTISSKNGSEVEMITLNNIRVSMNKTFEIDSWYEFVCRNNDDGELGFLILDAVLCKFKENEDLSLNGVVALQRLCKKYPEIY

B1: His6-tagged Mei5-Sae3 heterodimer (complex, Saccharomyces cerevisiae)
chain 1: MHNQEEWLDKDKTLVNEEENTCINHSYTKKDTNNYRVGKSGIKDLKKPTNQKEIAIKNRELTKQLTLLRQENNHLQQACKILSENKIIENRKSIEKWRTICEMELSFILNSTLIKINRMGGYKDFLEKEMEAKKRRLEYQIDNGMEDQICEIKESDDFRQLSEVEKQEWESQMNEQLKELEKKKIAELEKLNKVLHDSEGKDFGMAELCTRLKLDYSLIFPQ
chain 2: MNYLETQLNKKQKQIQEYESMNGNLIKMFEQLSKEKKNDETPKKISSTYIKELKEYNELRDAGLRLAQIIADEKQCKIKDVFEEIGYSMKD
For the molecule B1, the binding result (with His6-tagged Dmc1; in test [1]) was “binds” throughout.

Regarding B2, in test [1], the binding result is reported as “binds”.
